From patent US20160347847A1 (AGENUS, published 2016)
Positions count from the first letter of the chain named.

What was measured:
[1] = biological target: T1, FcγRIIA with the high affinity 131 H/H polymorphism on Jurkat NFAT-luciferase reporter cells (UniProt P12318 34-317, limits assumed); assay: cell-based or functional assay
T1 sequence (looked up): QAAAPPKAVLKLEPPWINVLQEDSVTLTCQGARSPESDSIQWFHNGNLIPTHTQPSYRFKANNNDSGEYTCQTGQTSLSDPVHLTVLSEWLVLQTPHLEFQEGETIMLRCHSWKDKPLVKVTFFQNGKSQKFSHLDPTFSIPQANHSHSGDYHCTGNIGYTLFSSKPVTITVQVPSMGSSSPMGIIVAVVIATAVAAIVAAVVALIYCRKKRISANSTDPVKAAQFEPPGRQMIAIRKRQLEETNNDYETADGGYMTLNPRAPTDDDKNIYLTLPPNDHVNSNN

R80A = biological target: T2, R80A; assay: flow cytometry on 1624-5 cells expressing the human OX40 alanine mutant; pab1928 at 1.1 and 0.4 µg/ml
T2 construct: also called human OX40 alanine mutant R80A on 1624-5 cells
T2 receptor chain: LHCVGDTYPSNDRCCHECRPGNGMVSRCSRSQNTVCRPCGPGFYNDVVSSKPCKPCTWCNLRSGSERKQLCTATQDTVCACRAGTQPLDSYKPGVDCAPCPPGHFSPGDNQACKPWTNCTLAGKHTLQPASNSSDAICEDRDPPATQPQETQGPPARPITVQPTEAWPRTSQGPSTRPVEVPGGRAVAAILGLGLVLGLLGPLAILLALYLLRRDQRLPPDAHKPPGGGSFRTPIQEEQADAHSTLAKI
Protocol: (§1) This anti-OX40 antibody non-reactive cell population was subjected to a final, single-cell sorting step. […] The polyclonal anti-OX40 antibody (AF3388, R&D systems) conjugated with APC was diluted at 1:2000. Fc receptor block (1:200; BD Cat no. 553142) was added, and the samples were incubated for 20 minutes at 4° C. […] The cells were then washed and acquired using a flow cytometer (BD Biosciences).

L88A = biological target: T3, L88A; assay: as above
T3 construct: also called human OX40 alanine mutant L88A on 1624-5 cells
T3 receptor chain: T2 receptor chain with A80R, L88A
Protocol: as §1

N60A = biological target: T4, N60A; assay: as above
T4 construct: also called human OX40 alanine mutant N60A on 1624-5 cells
T4 receptor chain: T2 receptor chain with N60A, A80R
Protocol: as §1

W58A = biological target: T5, W58A; assay: as above
T5 construct: also called human OX40 alanine mutant W58A on 1624-5 cells
T5 receptor chain: T2 receptor chain with W58A, A80R
Protocol: as §1

R62A = biological target: T6, R62A; assay: as above
T6 construct: also called human OX40 alanine mutant R62A on 1624-5 cells
T6 receptor chain: T2 receptor chain with R62A, A80R
Protocol: as §1

P99A = biological target: T7, P99A; assay: as above
T7 construct: also called human OX40 alanine mutant P99A on 1624-5 cells
T7 receptor chain: T2 receptor chain with A80R, P99A
Protocol: as §1

P93A = biological target: T8, P93A; assay: as above
T8 construct: also called human OX40 alanine mutant P93A on 1624-5 cells
T8 receptor chain: T2 receptor chain with A80R, P93A
Protocol: as §1

P115A = biological target: T9, P115A; assay: as above
T9 construct: also called human OX40 alanine mutant P115A on 1624-5 cells
T9 receptor chain: T2 receptor chain with A80R, P115A
Protocol: as §1

B1: pab2193-1 (antibody, human IgG2, kappa)
heavy: EVQLVESGGGLVQPGGSLKLSCAASGFTFSGSAMHWVRQASGKGLEWVGRIRSKANSYATAYAASVKGRFTISRDDSKNTAYLQMNSLKTEDTAVYYCTSGIYDSSGYDYWGQGTLVTVSSASTKGPSVFPLAPCSRSTSESTAALGCLVKDYFPEPVTVSWNSGALTSGVHTFPAVLQSSGLYSLSSVVTVPSSNFGTQTYTCNVDHKPSNTKVDKTVERKCCVECPPCPAPPVAGPSVFLFPPKPKDTLMISRTPEVTCVVVDVSHEDPEVQFNWYVDGVEVHNAKTKPREEQFNSTFRVVSVLTVVHQDWLNGKEYKCKVSNKGLPAPIEKTISKTKGQPREPQVYTLPPSREEMTKNQVSLTCLVKGFYPSDIAVEWESNGQPENNYKTTPPMLDSDGSFFLYSKLTVDKSRWQQGNVFSCSVMHEALHNHYTQKSLSLSPG
light: not shown
[1]
  EC50 (read off the curve): ~1 nM

B2: pab1928 (antibody, human IgG1, V domains shown)
VH: QVQLVQSGSELKKPGASVKVSCKASGYTFTDYSMHWVRQAPGQGLKWMGWINTETGEPTYADDFKGRFVFSLDTSVSTAYLQISSLKAEDTAVYYCANPYYDYVSYYAMDYWGQGTTVTVSS
VL: DIQMTQSPSSLSASVGDRVTITCKASQDVSTAVAWYQQKPGKAPKLLIYSASYLYTGVPSRFSGSGSGTDFTFTISSLQPEDIATYYCQQHYSTPRTFGQGTKLEIKR
notes: also called made from the variable regions of Hu106-122 (US 2013/0280275)
R80A
  binding result: binds
L88A
  binding result: binds
N60A
  binding result: binds
W58A
  binding result: no binding (tested: 1.1 µg/ml)
R62A
  binding result: binds
P99A
  binding result: binds
P93A
  binding result: binds
P115A
  binding result: binds
